Results as given in patent publication US8785135B2, “Mutant G-protein coupled receptors and methods for selecting them” (Heptares Therapeutics Limited, priority 2007, dated 2014).
Changes are numbered by the printed parent chain. Numbers in names are those of the source. Like-named read-outs stand apart in the source and are kept apart here.

Columns and labels:
[1] = Thermostability of β adrenergic receptors expressed in mammalian cells, minus-ligand format; conditions: 0.1% dodecylmaltoside, apo-state heated, 3H-DHA added after
Excerpt: The resulting mutants were transiently expressed in mammalian cells, solubilised in 0.1% dodecylmaltoside and assayed for thermostability in the minus-ligand format (heating the apo-state, quenching on ice, adding 3H-DHA).

βAR-m23 = βAR-m23 (Meleagris gallopavo, UniProt P07700, A282L/C116L/F327A/F338M/M90V/R68S/Y227A); format: binding, turkey
βAR-m23, sequence (P07700 34-424 R68S/M90V/C116L/Y227A/A282L/F327A/F338M): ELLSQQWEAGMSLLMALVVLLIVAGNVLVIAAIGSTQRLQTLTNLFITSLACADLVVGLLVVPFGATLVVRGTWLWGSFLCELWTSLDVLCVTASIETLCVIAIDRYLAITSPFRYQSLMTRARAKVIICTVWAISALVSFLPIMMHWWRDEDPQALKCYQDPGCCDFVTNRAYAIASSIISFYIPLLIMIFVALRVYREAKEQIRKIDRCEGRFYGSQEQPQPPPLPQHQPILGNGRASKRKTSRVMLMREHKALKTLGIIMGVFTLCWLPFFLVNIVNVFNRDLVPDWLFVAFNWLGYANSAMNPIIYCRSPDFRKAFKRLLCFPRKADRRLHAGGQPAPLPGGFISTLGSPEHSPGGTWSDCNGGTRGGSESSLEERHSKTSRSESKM

[2] = Thermostability assay of βAR34-424 and mutants (heat detergent-solubilised receptor 30 min, then [3H]-DHA binding); conditions: heated 30 min without ligand; for Tm: turkey βAR expressed in E. coli, DDM-solubilised, [3H]-DHA binding, mean ± S.E. from duplicates
Procedure: Binding assays were performed using [^3H]-dihydroalprenolol (DHA) as radioligand as described under “Methods”. Samples were heated for 30 minutes at different temperatures before the assay. […] Data points are from duplicates of one single experiment. This experiment has been repeated several times with similar results.
Expression of βAR and the mutants was performed in X10 cells (Stratagene). Cultures of 50 ml of 2×TY medium containing ampicillin (100 μg/ml) were grown at 37° C. with shaking until OD600=3 and then induced with 0.4 mM IPTG. Induced cultures were incubated at 25° C. for 4 h and then cells were harvested by centrifugation at 13,000×g for 1 min (aliquots of 2 ml) and stored at ±20° C. For the assays, cells were broken by freeze-thaw (five cycles), resuspended in 500 μl of buffer [20 mM Tris pH 8, 0.4 M NaCl, 1 mM EDTA and protease inhibitors (Complete™, Roche)]. After an incubation for 1 h at 4° C. with 100 μg/ml lysozyme and DNase I (Sigma), samples were solubilized with 2% DDM on ice for 30 minutes. Insoluble material was removed by centrifugation (15,000×g, 2 min, 4° C.) and the supernatant was used directly in radioligand binding assays.
Single point binding assays contained 20 mM Tris pH 8, 0.4 M NaCl, 1 mM EDTA, 0.1% DDM (or corresponding detergent) with 50 nM [^3H]-DHA and 20-100 μg membrane protein in a final volume of 120 μl; equilibration was for 1 h at 4° C. Thermostability was assessed by incubating the binding assay mix, with or without [^3H]-DHA at the specified temperature for 30 minutes; reactions were placed on ice and [^3H]-DHA added as necessary and equilibrated for a further hour. […] Radioactivity was counted on a Beckman LS6000 liquid scintillation counter and data were analyzed by nonlinear regression using Prism software (GraphPad).

[3] = Thermostability of A2aR and mutants (ligand binding after or during heating); format: physicochemical; conditions: for Tm +agonist / Tm +antagonist / Tm −agonist / Tm −antagonist: 1% DDM (no glycerol); for Tm +agonist: agonist-occupied state; for Tm +antagonist: antagonist-occupied state; for Tm −agonist / Tm −antagonist: apo-state; for Tm −agonist: agonist binding; for Tm −antagonist: antagonist binding; for Tm: ZM241385 bound; for thermostability measured with 3H-NECA (agonist): Ligand(−) format, binding after the heating step
Excerpt: FIG. 12 Flow chart showing the two different assay formats of ligand (+) and ligand (−) used to determine receptor thermostability.
• 1. 315 site-directed mutants made between residues 2-316 of A2aR. • 2. All of these mutants have been assayed for thermostability using an assay measuring agonist and antagonist binding after the heating step (Ligand(−) format as described in FIG. 12). • a. […] Mutations have been combined to generate mutants in a putative antagonist conformation. Wildtype A2aR has a Tm of 31° C. with ZM241385 bound. • a. Rant17 A54L+K122A+L235A Tm 48° C. (ZM241385 bound) • b. Rant19 A54L, T88A, V239A+A204L Tm 47° C. (ZM241385 bound) • c. Rant21 A54L, T88A, V239A+K122A Tm 49° C. (ZM241385 bound) • 4. Mutations from the agonist screen have been combined, but have led to only a very low level of improvement in Tm of +2° C.

[4] = Stability of wild-type and mutant A2aR in different detergents; format: physicochemical; parameters: key: It was not possible to determine the Tm for some receptor-detergent combinations, because the receptor was too unstable (†)
Rant 21 = Rant 21 (Homo sapiens, UniProt P29274, A54L/K122A/T88A/V239A); assay: Competition assay against [3H]ZM241385, detergent-solubilised receptor; format: binding; conditions: versus wild-type A2aR

With human β1: human β1 adrenergic receptor the “apparent Tm” value [1] was ~12 °C.

Work on “1-[4,6-propyl-^3H]-dihydroalprenolol [[^3H]-dihydroalprenolol]” yielded a Kd (βAR-m23; membranes, n=2) of 6.5 ± 0.2 nM and a Kd (βAR-m23; semipurified receptor) of 12.5 nM.

For M90A: βAR34-424 point mutant, the “increase in Tm compared to βAR34-424” value ([2]; DDM) was 8 °C.

With “turkey β1: turkey β1 adrenergic receptor transiently expressed in mammalian cells” the “apparent Tm” value [1] was 23 °C.

Work on “m10-4: βAR34-424 mutant R68S, M90V, V230A, A334L” yielded a Tm [2] of 46.9 ± 1.0 °C.

Molecule “m7-7: βAR34-424 mutant M90V, Y227A, F338M” has a Tm [2] of 45.2 ± 2.0 °C.

In the case of “m6-4: βAR34-424 mutant R68S, Y227A, A234L, A282L”, the Tm [2] is reported as 41.6 ± 0.1 °C.

For “Wildtype A2aR: human adenosine A2a receptor, parent”, the “Tm +agonist” value [3] was 29 °C, the “Tm +antagonist” value [3] was 32 °C and the “Tm −agonist” value [3] was 21 °C. For the same molecule, the “Tm −antagonist” value [3] was 31 °C, the Tm [3] was 31 °C and the “Tm Agonist-binding” value ([4]; 0.003% LDAO) was 28 °C. For the same molecule, the “Tm Antagonist-binding” value ([4]; 0.003% LDAO) was 32 °C, the “Tm Agonist-binding” value ([4]; 0.006% FC12) was 37 °C and the “Tm Antagonist-binding” value ([4]; 0.006% FC12) was 43 °C. For the same molecule, the “Tm Agonist-binding” value ([4]; 0.01% DDM) was 27 °C, the “Tm Antagonist-binding” value ([4]; 0.01% DDM) was 25 °C and the “Tm Agonist-binding” value ([4]; 0.1% DM) was 23 °C. For the same molecule, the “Tm Antagonist-binding” value ([4]; 0.1% DM) was 10 °C, the “Tm Agonist-binding” value ([4]; 0.3% NG) was “†” and the “Tm Antagonist-binding” value ([4]; 0.3% NG) was “†”. The “Tm Agonist-binding” value ([4]; 0.3% NM) was 22 °C, the “Tm Antagonist-binding” value ([4]; 0.3% NM) was <4 °C and the “Tm Agonist-binding” value ([4]; 0.6% OG) was <9 °C. For the same molecule, the “Tm Antagonist-binding” value ([4]; 0.6% OG) was “†”.

“m6-5: βAR34-424 mutant R68S, A234L, A282L, A334L” showed a Tm [2] of 41.9 ± 0.5 °C.

With “m20: βAR34-424 mutant R68S, M90V, F327A, A334L” the Tm [2] was 48.4 ± 0.7 °C.

“m6-10: βAR34-424 mutant R68S, Y227A, A282L, A334L” showed a Tm [2] of 47.4 ± 1.1 °C.

Molecule “m7-1: βAR34-424 mutant M90V, A282L, F338M” has a Tm [2] of 43.0 ± 0.8 °C.

“m6-9: βAR34-424 mutant R68S, Y227A, A234L, A282L, A334L” showed a Tm [2] of 43.7 ± 0.4 °C.

B1: Rant 21: A2aR mutant A54L, T88A, V239A+K122A (protein, UniProt P29274 1-412, looked up, variant A54L T88A V239A K122A)
Adenosine receptor A2a: MPIMGSSVYITVELAIAVLAILGNVLVCWAVWLNSNLQNVTNYFVVSLAAADILVGVLAIPFAITISTGFCAACHGCLFIACFVLVLAQSSIFSLLAIAIDRYIAIRIPLRYNGLVTGTRAAGIIAICWVLSFAIGLTPMLGWNNCGQPKEGKNHSQGCGEGQVACLFEDVVPMNYMVYFNFFACVLVPLLLMLGVYLRIFLAARRQLKQMESQPLPGERARSTLQKEVHAAKSLAIIAGLFALCWLPLHIINCFTFFCPDCSHAPLWLMYLAIVLSHTNSVVNPFIYAYRIREFRQTFRKIIRSHVLRQQEPFKAAGTSARVLAAHGSDGEQVSLRLNGHPPGVWANGSAPHPERRPNGYALGLVSGGSAQESQGNTGLPDVELLSHELKGVCPEPPGLDDPLAQDGAGVS
In the case of B1, the “Tm +antagonist” value [3] is reported as 49 °C, the “Tm −antagonist” value [3] is reported as 41 °C and the Tm [3] is reported as 49 °C. For the same molecule, the “Tm Antagonist-binding” value ([4]; 0.003% LDAO) was 42 °C, the “Tm Antagonist-binding” value ([4]; 0.006% FC12) was 49 °C and the “Tm Antagonist-binding” value ([4]; 0.01% DDM) was 39 °C. For the same molecule, the “Tm Antagonist-binding” value ([4]; 0.1% DM) was 28 °C, the “Tm Antagonist-binding” value ([4]; 0.3% NG) was 22 °C and the “Tm Antagonist-binding” value ([4]; 0.3% NM) was 25 °C. The “Tm Antagonist-binding” value ([4]; 0.6% OG) was 23 °C and the “agonist binding weaker than parent” value (Rant 21) was 2-4 orders of magnitude.

B2: A184L: A2aR point mutant (protein, UniProt P29274 1-412, looked up, variant A184L)
Adenosine receptor A2a: B1 Adenosine receptor A2a with L54A, A88T, A122K, A184L, A239V
For B2, the “thermostability measured with 3H-NECA (agonist)” value [3] was “improved thermostability”.

B3: R199A: A2aR point mutant (protein, UniProt P29274 1-412, looked up, variant R199A)
Adenosine receptor A2a: B1 Adenosine receptor A2a with L54A, A88T, A122K, R199A, A239V
For B3, the “thermostability measured with 3H-NECA (agonist)” value [3] was “improved thermostability”.

B4: Rag 1: A2aR mutant A184L/R199A/L272A (protein, UniProt P29274 1-412, looked up, variant A184L R199A L272A)
Adenosine receptor A2a: B1 Adenosine receptor A2a with L54A, A88T, A122K, A184L, R199A, A239V, L272A
With B4 the “Tm +agonist” value [3] was 34 °C and the “Tm −agonist” value [3] was 26 °C.

B5: Rant 5: A2aR mutant A54L/T88A/V239A (protein, UniProt P29274 1-412, looked up, variant A54L T88A V239A)
Adenosine receptor A2a: B1 Adenosine receptor A2a with A122K
For B5, the “Tm +antagonist” value [3] was 46 °C and the “Tm −antagonist” value [3] was 42 °C.
